Laboratory results from the nanobody polyreactivity screen of Harvey et al. (2022).

Test: yeast display, Sf9 membrane polyspecificity reagent, FACS + sequencing; frameworks hold sequencing errors
How it was run: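 Polyreactivity labels are assigned by the sorting gate from which each nanobody was recovered. The gates were low and high (top ~1%), set on anti-HA fluorescence for expression and streptavidin fluorescence for reagent binding. Before sorting, galactose-induced (36–48 hours) yeast display cells were stained for 1 hour at 4 °C with 10% biotinylated, detergent-solubilized Sf9 membrane reagent.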

Sequence | polyreactivity (PSR sort gate)
QVQLVESGGGLVQAGGSLRLSCAASGRTFGGYAMGWYRQAPGKERELVAAINYSGGTTYYADSVKGRFTISRDNAKNTVYLQMNSLKPEDTAVYYCAASDCYGLFYGGPTWWKGHDYWGQGTQVTVSS | high polyreactivity
QVQLVESGGGLVQAGGSLRLSCAASGRTFGGYAMGWYRQAPGKERELVATISYSSGSTYYADSVKGRFTISRDNAKNTVYLQLNSLKTEDTAVYYCAAEYRSRSWRMDYWGQGTQVTVSS | high polyreactivity
QVQLVESGGGLVQAGGSLRLSCAASGRTFGGYTIGWSRQAPGKERELVAAIRWSGGRTYYADSVKGRFTISRDNAKNTVYLQMNSLKPEDTAVYYCNARYVFPYYWGQGTQVTVSS | high polyreactivity
QVQLVESGGGLVQAGGSLRLSCAASGRTFGHYAMGWYRQAPGKERELVAAITWTGGRTYYADSVKGRFTISRDNAKNTVYLQMNSLNPEVTAVYYCNTDRSFYYPAEYDYDYWGQGTQVTVSS | low polyreactivity
QVQLVESGGGLVQAGGSLRLSCAASGRTFGHYAMGWYRQAPGKERELVATITGGGTTNYADSVKGRFTISRDNAKNTVYLQMNRLKPEDTAVYYCNAAWRYYWLGLRRNGYWGQGTQVTVSS | high polyreactivity
QVQLVESGGGLVQAGGSLRLSCAASGRTFGIKAMGWYRQAPGKERELVATITTGTSTNYAVSVKGRFTISRDNAKNTVYLQMNSLKPEDTAVYYCAARDWYGWEFDYWGQGTQVTVSA | low polyreactivity
QVQLVESGGGLVQAGGSLRLSCAASGRTFGIYALGWYRQAPGKERELVAAITGRGGSTHYADSVKGRFTISRDNAKNTVYLQMNSLKPEDTAVYYCNAEGVYYDYKYGYYGYDYWGQGTQVTVSS | low polyreactivity
QVQLVESGGGLVQAGGSLRLSCAASGRTFGIYVMGWYRQAPGKERELVAAIRGGGTTYYADSVKGRFTISRDNANNTVYLQMNSLKPEDTAVYYCAAESRYQRYDYWGQGTQVTVSS | high polyreactivity
QVQLVESGGGLVQAGGSLRLSCAASGRTFGKNAMGWYRQAPGKEREFVAAITSRGGSTYYADSVKGRFTISRDNAKNTDYLQMNRLKPEDTAVYYCNREFKRQSQRTEHYYWGQGTQVTVSS | low polyreactivity
QVQLVESGGGLVQAGGSLRLSCAASGRTFGKNAMGWYRQAPGKEREFVAAITSRGGSTYYADSVKGRFTISRDNAKNTVYLQMNSLKPEDTAVYYCNREYKRPSQRTEHYYWGQGTQVTVSS | low polyreactivity
QVQLVESGGGLVQAGGSLRLSCAASGRTFGKYAMGWYRQAPGKERELVAAITGDGGSTYYADSVKGRFTISRDNAKNTVYLQMNSLKPEDTAVYYCNADPQRRNYDYWGQGTQVTVSS | high polyreactivity
QVQLVESGGGLVQAGGSLRLSCAASGRTFGLYAMGWYRQAPGKERELVAAMSYSGGSTYYADSVQGRFTISRDNAKNTVYLQMNSLKPEDTAVYYCAAVYYYASRTSKQPYYDWGQGTQVTVSS | high polyreactivity
QVQLVESGGGLVQAGGSLRLSCAASGRTFGLYAMRWYRQAPGKERELVAAISIRGGATYYAVSVKGRFTISRDNAKNTVYLQMNSLKPEDSAVYYCNKGPGRWYYWGQVTQVTVSS | low polyreactivity
QVQLVESGGGLVQAGGSLRLSCAASGRTFGLYDMGWYRQAPGKERELVAGITRRGGRTYYADSVKGRFTISRDNAKNTVYLQMNSLKPEDTAVYYCAVVTRYRYDYWGQGTQVTVSS | high polyreactivity
QVQLVESGGGLVQAGGSLRLSCAASGRTFGNNAMGWSRPAPGKERELVAAITASGGRTYYADSVKGRFTISRDNAKTTVYLQMNSLKPEDTAVYYCADGGPRVNGYGGYYWGQGTQVTVSS | high polyreactivity
QVQLVESGGGLVQAGGSLRLSCAASGRTFGNYAMGWYRQAPGKERELVAAITSAGRTYYADSVKGRFTISRDNAKNTVYLQMNSLKPEDTAVYYCNANRVSPYYWGQGTQVTVSS | low polyreactivity
QVQLVESGGGLVQAGGSLRLSCAASGRTFGNYAMGWYRQARGKERELVASISRRGGSTYYADSVKGRFTISRENAKNTVYLQMTSLKPDDTAVFYCATLRGRQRFGYDYWGQGTQVTVSS | high polyreactivity
QVQLVESGGGLVQAGGSLRLSCAASGRTFGPYAMGWYRQAPGKEREFVAAMSYSGGSTYYADSVKGRFTISRDTAKNTVFLQINSLKPEDTAVYYCAVDIDSNSGTRDYWGQGTQVTVSS | low polyreactivity
QVQLVESGGGLVQAGGSLRLSCAASGRTFGQNAMGWYRPAPGKERELVAAISRGGSTYYADSVKGRFTISRDNAKNTVYLQMNSLKPEDTAVYYCAAAKKSGVYLRLNYWGQGTQVTVSS | high polyreactivity
QVQLVESGGGLVQAGGSLRLSCAASGRTFGQNTMGWYRQAPGIERELVAAINWSGGSTYYADSVKGRFTISRDIAKNTVYVQMNSLKPEDTAVYYCAVRGYWGQGTQVTVSS | low polyreactivity
QVQLVESGGGLVQAGGSLRLSCAASGRTFGQNTMGWYRQAPGKERELVATITSDGGDTYYADSVKGRFTISRDNAKNTVYLQMNSLKPEDTAVYYCKADYAGPKYVGYTFRSFTMDYWGQGTQVTVSS | low polyreactivity
QVQLVESGGGLVQAGGSLRLSCAASGRTFGRNAMGWYRQAPGKEREFVAAISYRGGSTYYADSVKGRFTISRDNAKNTVYLQMNSLKPEDTAVYYCAVRFSAPGYYYWGQGTQVTVSS | high polyreactivity
QVQLVESGGGLVQAGGSLRLSCAASGRTFGRNAMGWYRQAPGKERELVAAISSSGTRTYYADSVKGRFTISRDNAKNTVYLQMNSLKPEDTAVYYCAVDTLRYKMDYWGQGTQVTVSS | low polyreactivity
QVQLVESGGGLVQAGGSLRLSCAASGRTFGRNGMGWYRQAPGKERELVAAISIGDSTTYADSVKGRFTISRDNAKNTVYLQMNSLKPEDTAVYYCAAEIERYPVWEYRGKYDYWGQGTQVTVSS | low polyreactivity
QVQLVESGGGLVQAGGSLRLSCAASGRTFGRYAMGWYRKAPGKERELVAAISCSGGSTYYADSVKGRFTISRDNAKNTVYLQMNSLKPEDTAVYYCAADWRQGLWYGYYYWGQGTQVTVSS | low polyreactivity
QVQLVESGGGLVQAGGSLRLSCAASGRTFGRYAMGWYRQAPGKERELVADITGGGSTNYADSVKGRFTISRDNAKNTVYFQMNSLKPEDTAVYYCNAGILSRWVRKYYYWGQGTQVTVSS | low polyreactivity
QVQLVESGGGLVQAGGSLRLSCAASGRTFGRYAMGWYRQAPGKERELVARIRTSGGRTYYADSVKGRFTISRDIAKNTVYLLMNSLNPEDTAVYYCGTSSQPWYYWSTQGDDFWGQGTQVSVSS | low polyreactivity
QVQLVESGGGLVQAGGSLRLSCAASGRTFGRYAMVWSRQAPGKERELVAAITRGGGSTYYADSVKGRFTISRDNAKYTVYLQMNSLKPEDTAVYYCAARNFRSPYGYDYWGQGTQVTVSS | high polyreactivity
QVQLVESGGGLVQAGGSLRLSCAASGRTFGRYPMGCYRQAPGKERELVAAIRYSGSSTYYADSVKGRFTISRDNAKNTVYLQMYSLKPEDTAVYYCAKRYYGKDYWGQGSQVTVSS | high polyreactivity
QVQLVESGGGLVQAGGSLRLSCAASGRTFGSNAMGWYRQAPGKERELVAAISRVGSTYYADSVNGRFTISRDNAMNTVYLQMNSLKPEDTAVYYCPYDYWGQGTQVTVSS | low polyreactivity
